Reference: the RNAGym collection of RNA variant scans (doi:10.7554/elife.90254)

B1: LINE1-mini (parent)
chain: GGCAGAGCUCAACACAGCGUGGCAAAGUGGCUGUGGCUAGACUGCC

Variants of: B1
Experiment: self-cleavage, relative activity (ratio to wild type); higher = more cleavage; in vitro, sequencing; the parent is a self-cleaving ribozyme
In the case of GGCAGAGCUCAACACAUCGUGGCAAAGUGGCUGUGGCUCGACUGCC [G17U A39C], the self-cleavage is reported as 0.04. Work on GGCAGAGCUCAACACAGCGUGGCAGAGUGGCUGAGGCUAGACUGCC [A25G U34A] yielded a self-cleavage of 0.06. GGCUGAGCUCAACACAGCGUGGCAAAGUGGCUGUGGCCAGACUGCC [A4U U38C] showed a self-cleavage of 0.17. GGCAGAGGUCAACACAGCGUGGCAUAGUGGCUGUGGCUAGACUGCC [C8G A25U] showed a self-cleavage of 0.26. Variant GGCAGAGCUCAACACAGCGCGGCAAAGUGGGUGUGGCUAGACUGCC [U20C C31G] has a self-cleavage of 0.07. With GGCAGAGCUCAGCACAGCGUGGCAAAGUGGCUGUGGCUAUACUGCC [A12G G40U] the self-cleavage was 0.06. In the case of GGCAGAGCUCAACAAAGCGUGGCAAAGUGGCUGUGGCUAGACUGAC [C15A C45A], the self-cleavage is reported as 0.08. GGCAGAGCUCAAGACAGCGUGGCAAAGUGGCUGUGGCUCGACUGCC [C13G A39C] showed a self-cleavage of 0.16. Work on GGCAGAGCUCAACGCAGCGUGGCAAAGUGGCUGUGGCAAGACUGCC [A14G U38A] yielded a self-cleavage of 0.52. Work on GGCAGAGCUCAACACAGCGUGGCUAAGUGGCUGUGGCUAGACUCCC [A24U G44C] yielded a self-cleavage of 0.67. In the case of GGCAGAGCUCAACACAGCGUGGCAAAGCGGGUGUGGCUAGACUGCC [U28C C31G], the self-cleavage is reported as 0.16. In the case of GGCAGAGCUCAACACAGCGUGGCAAAGUGGGUGUGGCUAGACUGCC [C31G], the self-cleavage is reported as 0.1. GGCAGAGCGCACCACAGCGUGGCAAAGUGGCUGUGGCUAGACUGCC [U9G A12C] gave a self-cleavage of 0.02. Variant GCCCGAGCUCAACACAGCGUGGCAAAGUGGCUGUGGCUAGACUGCC [G2C A4C] has a self-cleavage of 0.11. In the case of GGCAGAGCUGAACACAGCGAGGCAAAGUGGCUGUGGCUAGACUGCC [C10G U20A], the self-cleavage is reported as 0.06. Work on GGCAGAGCUCAACACAGCGUGGCAAAGUGGAUGUGGCUAGACCGCC [C31A U43C] yielded a self-cleavage of 0.05. With GGCAGGGCUCACCACAGCGUGGCAAAGUGGCUGUGGCUAGACUGCC [A6G A12C] the self-cleavage was 0.05. Variant GGCAGAGCUCAACACAGUGUGGCAUAGUGGCUGUGGCUAGACUGCC [C18U A25U] has a self-cleavage of 0.7. Work on GGCAGAGCUCAACACAGCGUGUCAAAGUGGCUGUGGCUAGACUGCU [G22U C46U] yielded a self-cleavage of 1.22. GGCAGAGCUCAACACAUCCUGGCAAAGUGGCUGUGGCUAGACUGCC [G17U G19C] showed a self-cleavage of 1.08. GGCAGAGCUCAACACAGAGUGGGAAAGUGGCUGUGGCUAGACUGCC [C18A C23G] showed a self-cleavage of 0.76. Work on GGCAGAGCUUAACACAGCGUGGCAAAGGGGCUGUGGCUAGACUGCC [C10U U28G] yielded a self-cleavage of 0.23. For GGCAGAGCUCAACACAGCGUGCUAAAGUGGCUGUGGCUAGACUGCC [G22C C23U], the self-cleavage was 0.64. Variant GGCGGAGCUCAACACAGCGUGGCAAAGUCGCUGUGGCUAGACUGCC [A4G G29C] has a self-cleavage of 0.12. With GGCAGAUCUCAACACAGCGUGGCAAAGUGGCUGGGGCUAGACUGCC [G7U U34G] the self-cleavage was 0.05. For GGCAGAGCUCAACACAGCGUAGCAUAGUGGCUGUGGCUAGACUGCC [G21A A25U], the self-cleavage was 1.75. Variant GGCAGCGCUCAACACAGCUUGGCAAAGUGGCUGUGGCUAGACUGCC [A6C G19U] has a self-cleavage of 0.56. With GGCAGAGCUCUACACAGCGUGGCAAGGUGGCUGUGGCUAGACUGCC [A11U A26G] the self-cleavage was 0.13. Work on GGCAGAGCUCAACACAGCGUGGCAAAGUGGCUGGGGCUAGACUGUC [U34G C45U] yielded a self-cleavage of 0.19. Work on GGCAGAGCUCAACACAUCGUGGCAAAGUGGUUGUGGCUAGACUGCC [G17U C31U] yielded a self-cleavage of 0.11. In the case of GCCAGAGCUCAACACAGCGUGGCAAAGUGGCAGUGGCUAGACUGCC [G2C U32A], the self-cleavage is reported as 0.17. In the case of GGCAGAGCUAAACACAGCGUGGCAAAGUGGCUGUGGCUAGACUGUC [C10A C45U], the self-cleavage is reported as 0.07. Variant GGCAGAGCUCAACACAGCGUGGAAAAGUGGCUGUGGCUCGACUGCC [C23A A39C] has a self-cleavage of 0.27. In the case of GGCAGAGCUCAACCCAGCGUGGCAAAGCGGCUGUGGCUAGACUGCC [A14C U28C], the self-cleavage is reported as 0.07. With GGCAGAGCUCAACACAGCGUGGCAAAGUGGGUGUGGCUAGUCUGCC [C31G A41U] the self-cleavage was 0.09. With GGCAGAGCUCAACUCAGCGUGGCAAAGUGGCUGUAGCUAGACUGCC [A14U G35A] the self-cleavage was 0.16. GGCAGAGCUCAACACAGCGUCGCAAAGUGGCUGUGGAUAGACUGCC [G21C C37A] showed a self-cleavage of 0.02. With GGCAGAGCGCAACGCAGCGUGGCAAAGUGGCUGUGGCUAGACUGCC [U9G A14G] the self-cleavage was 0.12. GUCAGAGCUCCACACAGCGUGGCAAAGUGGCUGUGGCUAGACUGCC [G2U A11C] gave a self-cleavage of 0.01. Variant GGCAGAGCUCAACACAGCGUGGCAAAGUCGCUGUGGCUAGCCUGCC [G29C A41C] has a self-cleavage of 0.04. In the case of GGCAGAGCUCAACACAGCGUGGCAAAGUGGUUGUGGCUAGACCGCC [C31U U43C], the self-cleavage is reported as 0.06. With GGCUGAGCUCAACACAGCGUGGCAAAGUGGCAGUGGCUAGACUGCC [A4U U32A] the self-cleavage was 0.06. With GGCAGAGCUCAACACAGCGUGGCAAAGUGGCUAUGUCUAGACUGCC [G33A G36U] the self-cleavage was 0.09. In the case of GGCAGAGCUCAACACAGCGUGUCAAAGUGGCUGUGGCUAGACUGAC [G22U C45A], the self-cleavage is reported as 0.88. In the case of GGCAUAGCUCAACACAGCGUGGCAAAGUUGCUGUGGCUAGACUGCC [G5U G29U], the self-cleavage is reported as 0.12. GGCAGAGCUCAACACAGCGUGGCAAAGUGACUGUGGCUAGACAGCC [G30A U43A] showed a self-cleavage of 0.12. Variant GGCAGAGCUCCACACAGCGUGGCAAAGUGGCUAUGGCUAGACUGCC [A11C G33A] has a self-cleavage of 0.04. In the case of GACAGAGCUCAACACAGCGUGGCAAAGUGGCUGUGGCUAGACUGCC [G2A], the self-cleavage is reported as 0.92. Work on CGCAGAGCUCAACACAGCGUGGCAAAGUGGCUCUGGCUAGACUGCC [G1C G33C] yielded a self-cleavage of 0.14. Variant GGCAGAGCUCAUCACAGCGUGGUAAAGUGGCUGUGGCUAGACUGCC [A12U C23U] has a self-cleavage of 0.34. GGCAGAGCUUAACACAGCGUGGCAAAGUGGCUGUGGCUAGACUCCC [C10U G44C] showed a self-cleavage of 0.16. Work on GGCAGAUCUCAACACAGUGUGGCAAAGUGGCUGUGGCUAGACUGCC [G7U C18U] yielded a self-cleavage of 0.14. With GGCAGAGUUCAACACAGCGUGGCAAAGUGGCUUUGGCUAGACUGCC [C8U G33U] the self-cleavage was 0.16. Work on GGCAGCGCUCAACACAGCGUGGCAAAGUGGGUGUGGCUAGACUGCC [A6C C31G] yielded a self-cleavage of 0.09. GGCAGAGCUCAACACAGCGUGUCAAAGUGGCUGUGGCUAGUCUGCC [G22U A41U] gave a self-cleavage of 0.72. With GGCACAGCUCAACACAGCGUGGCAAAGUGGCUGUGCCUAGACUGCC [G5C G36C] the self-cleavage was 0.06.
